{"source": "paper PMC4915018", "about": "“Brain phosphorylation of MeCP2 at serine 164 is developmentally regulated and globally alters its chromatin association”", "target": "MeCP2(74-172) WT (human, UniProt P51608 74-172)", "sequence (P51608 74-172)": "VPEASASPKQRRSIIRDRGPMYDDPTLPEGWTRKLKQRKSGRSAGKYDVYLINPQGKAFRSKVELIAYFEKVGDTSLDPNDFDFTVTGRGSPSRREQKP", "assay": "EMSA; subtly but consistently higher affinity for mCG; 10 mM Tris-HCl (pH not given), 50 mM KCl, 0.5 mM MgCl2, 0.1 mM EDTA, 5% glycerol, 0.1 mg/ml BSA, RT 30 min; 0-500 ng protein, 200 ng probe; 6% acrylamide, 1X TAE, ethidium bromide", "conditions": "protein: recombinant; blunt"}
{"binder": "CpG methylated probe (dsDNA, symmetric methyl-C at the only CpG (C16 of S1, C23 of S2; position inferred, bold marks lost)) DNA 1: CTAAAGGAAAAGTGACGCACTGTTTTACACCTTGGTTTT DNA 2: AAAACCAAGGTGTAAAACAGTGCGTCACTTTTCCTTTAG", "values": [{"measurement": "binding result", "value": "binds"}]}
